The target in this assay is ZZZ3 ZZ domain (aa 800–903), GST cleaved (human) (UniProt Q8IYH5). Put plainly: other fluorescence titration; tryptophan fluorescence; 1.0 µM ZZZ3 ZZ (aa 800–903) with increasing histone peptide; 25 °C; 20 mM Tris–HCl pH 7.2, 150 mM NaCl, 1 mM DTT; triplicates.
ZZZ3 ZZ domain (aa 800–903), GST cleaved (human), sequence (Q8IYH5 800-903): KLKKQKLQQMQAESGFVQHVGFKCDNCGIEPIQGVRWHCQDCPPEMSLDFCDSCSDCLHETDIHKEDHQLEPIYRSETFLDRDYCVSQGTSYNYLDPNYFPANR

In general, Kd refers to the constant that tells how readily two partners part at equilibrium. Read a high Kd as weaker binding. The substance “unmodified H3 peptide of the tryptophan fluorescence and NMR titration experiments” displayed a Kd of 29 µM.
In the case of “H3K4ac peptide of the tryptophan fluorescence and NMR titration experiments”, the Kd came out at 8.2 µM.

The values are drawn from publication PMC6138639, “The ZZ-type zinc finger of ZZZ3 modulates the ATAC complex-mediated histone acetylation and gene activation” (Nature Communications, 2018).
